Patent publication US20230013244A1 (BioIncept, LLC, priority 2014, published 2023)

Tests used:
Assay in all cases: PIF affinity column + LC-MS/MS, CD14+ cell lysate
[1] = target: 14-3-3 protein eta (human) (UniProt Q04917)
[2] = target: 14-3-3 protein theta (human) (UniProt P27348)
[3] = target: 78 kDa glucose-regulated protein (human) (UniProt P11021)
[4] = target: Actin, cytoplasmic 2 (human) (UniProt P63261)
[5] = target: Actinin alpha 1 isoform 3 (human) (UniProt P12814)
[6] = target: Annexin A1 (human) (UniProt P04083)
[7] = target: Bridging integrator 2 (human) (UniProt Q9UBW5)
[8] = target: Calreticulin (human) (UniProt P27797)
[9] = target: Coronin-1A (human) (UniProt P31146)
[10] = target: Filamin-A (human) (UniProt P21333)
[11] = target: Gelsolin (human) (UniProt P06396)
[12] = target: Heat shock protein HSP 90-beta (human) (UniProt P08238)
[13] = target: Histone-binding protein RBBP7 (human) (UniProt E9PC52)
[14] = target: Hornerin (human) (UniProt Q86YZ3)
[15] = target: Isoform 2 of Adenylyl cyclase-associated protein 1 (human) (UniProt Q01518)
[16] = target: Isoform 2 of Ras suppressor protein 1 (human) (UniProt Q15404)
[17] = target: Isoform SV of 14-3-3 protein epsilon (human) (UniProt P62258)
[18] = target: Isoform Short of 14-3-3 protein beta/alpha (human) (UniProt P31946)
[19] = target: Lymphocyte-specific protein 1 (human) (UniProt P33241)
[20] = target: Matrin-3 (human) (UniProt A8MXP9)
[21] = target: Myosin-9 (human) (UniProt P35579)
[22] = target: Nuclear autoantigenic sperm protein (human) (UniProt P49321)
[23] = target: Plastin-2 (human) (UniProt P13796)
[24] = target: Protein S100-A8 (human) (UniProt P05109)
[25] = target: Protein disulfide-isomerase A4 (human) (UniProt P13667)
[26] = target: Talin-1 (human) (UniProt Q9Y490)
[27] = target: Thymosin alpha-1 (human) (UniProt P06454)
[28] = target: Tropomyosin alpha-3 chain (human) (UniProt P06753)
[29] = target: Tropomyosin alpha-4 chain (human) (UniProt P67936)
[30] = target: Tubulin alpha-4A chain (human) (UniProt P68366)
[31] = target: Vimentin (human) (UniProt P08670)
Vimentin (human), sequence (P08670 2-466 limits assumed): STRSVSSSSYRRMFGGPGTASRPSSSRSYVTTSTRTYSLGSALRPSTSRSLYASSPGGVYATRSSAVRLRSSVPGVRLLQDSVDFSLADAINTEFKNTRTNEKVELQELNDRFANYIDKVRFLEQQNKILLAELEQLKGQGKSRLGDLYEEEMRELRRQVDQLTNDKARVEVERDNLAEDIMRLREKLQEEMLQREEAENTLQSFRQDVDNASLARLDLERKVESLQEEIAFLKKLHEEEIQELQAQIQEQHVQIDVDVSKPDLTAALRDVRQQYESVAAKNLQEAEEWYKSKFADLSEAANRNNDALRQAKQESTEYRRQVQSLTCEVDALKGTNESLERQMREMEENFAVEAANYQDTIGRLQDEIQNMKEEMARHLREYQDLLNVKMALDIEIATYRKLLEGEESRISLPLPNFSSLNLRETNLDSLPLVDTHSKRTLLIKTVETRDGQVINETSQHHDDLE

14-3-3 protein theta (human), sequence (P27348 whole entry): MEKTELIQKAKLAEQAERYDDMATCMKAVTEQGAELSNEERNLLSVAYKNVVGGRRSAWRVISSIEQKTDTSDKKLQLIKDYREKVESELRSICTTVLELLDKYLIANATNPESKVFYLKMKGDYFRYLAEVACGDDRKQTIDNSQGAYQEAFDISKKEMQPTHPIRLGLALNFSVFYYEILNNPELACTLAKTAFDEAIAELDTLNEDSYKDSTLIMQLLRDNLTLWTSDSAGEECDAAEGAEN
Bridging integrator 2 (human), sequence (Q9UBW5 whole entry): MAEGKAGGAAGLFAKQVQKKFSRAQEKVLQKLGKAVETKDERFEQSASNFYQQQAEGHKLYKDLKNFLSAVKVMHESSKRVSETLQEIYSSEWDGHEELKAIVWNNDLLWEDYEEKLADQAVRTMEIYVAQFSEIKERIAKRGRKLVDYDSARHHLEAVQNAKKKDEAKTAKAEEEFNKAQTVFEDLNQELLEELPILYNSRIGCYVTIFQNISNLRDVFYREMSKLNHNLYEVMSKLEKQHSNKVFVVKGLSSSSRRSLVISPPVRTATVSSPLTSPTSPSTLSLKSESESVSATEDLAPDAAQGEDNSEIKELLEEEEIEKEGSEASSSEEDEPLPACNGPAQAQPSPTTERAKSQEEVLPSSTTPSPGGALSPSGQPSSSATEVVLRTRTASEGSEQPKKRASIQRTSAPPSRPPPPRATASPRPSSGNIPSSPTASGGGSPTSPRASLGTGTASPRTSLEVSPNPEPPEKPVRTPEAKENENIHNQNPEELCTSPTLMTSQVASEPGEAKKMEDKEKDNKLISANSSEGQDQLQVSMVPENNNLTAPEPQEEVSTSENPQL
Nuclear autoantigenic sperm protein (human), sequence (P49321 2-788 limits assumed): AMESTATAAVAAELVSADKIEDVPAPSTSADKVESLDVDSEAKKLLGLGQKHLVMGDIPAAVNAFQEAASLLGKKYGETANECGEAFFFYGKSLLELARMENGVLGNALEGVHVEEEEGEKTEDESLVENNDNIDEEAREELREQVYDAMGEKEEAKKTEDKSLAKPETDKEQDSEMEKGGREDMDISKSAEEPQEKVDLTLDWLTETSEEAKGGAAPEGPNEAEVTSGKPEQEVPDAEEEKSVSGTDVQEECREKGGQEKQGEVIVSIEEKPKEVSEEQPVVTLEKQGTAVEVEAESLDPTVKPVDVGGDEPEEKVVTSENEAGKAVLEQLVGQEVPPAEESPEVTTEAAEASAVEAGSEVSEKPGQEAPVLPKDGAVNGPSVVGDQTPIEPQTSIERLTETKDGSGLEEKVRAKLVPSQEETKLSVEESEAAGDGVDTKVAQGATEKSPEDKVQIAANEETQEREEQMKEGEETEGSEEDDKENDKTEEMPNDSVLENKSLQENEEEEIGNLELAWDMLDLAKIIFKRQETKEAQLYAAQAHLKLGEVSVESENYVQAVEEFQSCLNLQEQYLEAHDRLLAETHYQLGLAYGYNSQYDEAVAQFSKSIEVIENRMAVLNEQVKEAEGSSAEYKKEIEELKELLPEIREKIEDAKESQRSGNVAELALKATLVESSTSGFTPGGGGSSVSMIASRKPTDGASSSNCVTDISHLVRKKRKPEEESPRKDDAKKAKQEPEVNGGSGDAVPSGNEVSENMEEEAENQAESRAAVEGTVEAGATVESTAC
Tropomyosin alpha-4 chain (human), sequence (P67936 2-248 limits assumed): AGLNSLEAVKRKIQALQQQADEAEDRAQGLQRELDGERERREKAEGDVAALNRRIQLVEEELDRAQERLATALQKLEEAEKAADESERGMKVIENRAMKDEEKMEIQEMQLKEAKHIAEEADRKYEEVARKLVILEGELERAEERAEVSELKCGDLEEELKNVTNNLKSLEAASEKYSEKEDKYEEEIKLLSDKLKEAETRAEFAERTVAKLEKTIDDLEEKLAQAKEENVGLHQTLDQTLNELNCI
Annexin A1 (human), sequence (P04083 2-346 limits assumed): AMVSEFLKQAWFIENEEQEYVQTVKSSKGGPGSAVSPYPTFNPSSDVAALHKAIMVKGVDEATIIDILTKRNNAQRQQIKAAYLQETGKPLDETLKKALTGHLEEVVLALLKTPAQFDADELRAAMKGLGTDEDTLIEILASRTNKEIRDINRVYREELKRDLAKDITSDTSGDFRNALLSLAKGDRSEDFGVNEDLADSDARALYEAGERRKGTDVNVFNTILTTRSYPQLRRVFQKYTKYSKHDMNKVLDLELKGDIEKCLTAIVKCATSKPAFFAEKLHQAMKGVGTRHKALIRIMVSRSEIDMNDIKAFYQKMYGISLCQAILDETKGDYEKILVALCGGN
Plastin-2 (human), sequence (P13796 2-627 limits assumed): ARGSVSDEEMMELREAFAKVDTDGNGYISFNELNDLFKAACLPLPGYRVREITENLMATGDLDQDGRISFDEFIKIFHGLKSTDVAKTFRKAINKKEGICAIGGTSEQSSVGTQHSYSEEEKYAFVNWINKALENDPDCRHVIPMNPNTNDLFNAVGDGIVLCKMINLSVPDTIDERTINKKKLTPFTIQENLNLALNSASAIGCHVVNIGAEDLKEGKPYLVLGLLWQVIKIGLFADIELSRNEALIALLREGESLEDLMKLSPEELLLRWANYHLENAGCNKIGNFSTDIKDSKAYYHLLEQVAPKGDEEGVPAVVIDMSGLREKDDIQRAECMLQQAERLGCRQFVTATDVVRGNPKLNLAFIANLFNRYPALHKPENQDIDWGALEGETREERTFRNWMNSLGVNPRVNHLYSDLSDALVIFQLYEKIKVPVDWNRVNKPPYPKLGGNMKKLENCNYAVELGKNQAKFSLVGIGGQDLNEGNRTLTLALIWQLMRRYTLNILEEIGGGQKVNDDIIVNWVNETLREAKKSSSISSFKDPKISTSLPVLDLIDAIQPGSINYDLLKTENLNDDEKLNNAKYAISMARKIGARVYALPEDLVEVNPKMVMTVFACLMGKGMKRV
Actinin alpha 1 isoform 3 (human), sequence (P12814 other isoform, or with tags, fused parts or gaps): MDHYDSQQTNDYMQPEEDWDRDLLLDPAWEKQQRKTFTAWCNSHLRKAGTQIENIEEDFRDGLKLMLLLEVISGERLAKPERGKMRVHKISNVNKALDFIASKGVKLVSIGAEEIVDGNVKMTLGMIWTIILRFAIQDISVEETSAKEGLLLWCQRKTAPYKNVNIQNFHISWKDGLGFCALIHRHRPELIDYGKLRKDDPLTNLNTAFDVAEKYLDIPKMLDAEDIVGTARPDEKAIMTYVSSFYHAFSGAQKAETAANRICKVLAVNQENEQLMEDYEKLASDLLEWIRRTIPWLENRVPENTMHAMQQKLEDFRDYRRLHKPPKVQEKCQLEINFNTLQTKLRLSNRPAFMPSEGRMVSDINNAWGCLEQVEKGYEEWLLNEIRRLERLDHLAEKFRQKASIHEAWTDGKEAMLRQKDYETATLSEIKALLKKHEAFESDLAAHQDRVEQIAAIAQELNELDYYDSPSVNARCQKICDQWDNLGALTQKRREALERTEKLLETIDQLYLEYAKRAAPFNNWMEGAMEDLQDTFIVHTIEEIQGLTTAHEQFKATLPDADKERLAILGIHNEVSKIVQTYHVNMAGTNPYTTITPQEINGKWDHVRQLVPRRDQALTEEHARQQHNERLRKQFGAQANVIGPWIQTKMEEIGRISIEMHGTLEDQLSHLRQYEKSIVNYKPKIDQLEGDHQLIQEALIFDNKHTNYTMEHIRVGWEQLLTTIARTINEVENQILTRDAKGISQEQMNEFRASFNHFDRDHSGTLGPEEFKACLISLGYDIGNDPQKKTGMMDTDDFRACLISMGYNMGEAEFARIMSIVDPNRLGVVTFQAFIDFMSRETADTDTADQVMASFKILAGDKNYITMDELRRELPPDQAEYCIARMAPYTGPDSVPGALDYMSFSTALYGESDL
Isoform 2 of Ras suppressor protein 1 (human), sequence (Q15404 54-277 limits assumed): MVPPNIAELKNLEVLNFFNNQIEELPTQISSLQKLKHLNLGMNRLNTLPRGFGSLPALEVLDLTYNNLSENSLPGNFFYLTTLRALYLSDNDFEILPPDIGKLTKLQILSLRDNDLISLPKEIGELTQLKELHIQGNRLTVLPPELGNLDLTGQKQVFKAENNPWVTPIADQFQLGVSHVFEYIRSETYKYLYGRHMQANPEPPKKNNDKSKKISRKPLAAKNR
Histone-binding protein RBBP7 (human), sequence (E9PC52 entry or part of it limits assumed, form in doubt): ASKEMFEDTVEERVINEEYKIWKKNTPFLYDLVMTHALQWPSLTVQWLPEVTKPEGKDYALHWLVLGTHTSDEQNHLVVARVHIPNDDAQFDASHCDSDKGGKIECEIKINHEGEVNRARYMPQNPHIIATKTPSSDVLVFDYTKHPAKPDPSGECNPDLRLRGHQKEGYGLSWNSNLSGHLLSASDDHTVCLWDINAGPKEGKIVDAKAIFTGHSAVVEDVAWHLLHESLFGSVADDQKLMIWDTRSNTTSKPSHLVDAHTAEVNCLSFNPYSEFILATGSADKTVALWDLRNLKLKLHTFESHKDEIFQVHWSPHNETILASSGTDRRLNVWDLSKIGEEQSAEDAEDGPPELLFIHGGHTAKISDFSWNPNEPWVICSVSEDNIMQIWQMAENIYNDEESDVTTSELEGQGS
Thymosin alpha-1 (human), sequence (P06454 other isoform, or with tags, fused parts or gaps limits assumed): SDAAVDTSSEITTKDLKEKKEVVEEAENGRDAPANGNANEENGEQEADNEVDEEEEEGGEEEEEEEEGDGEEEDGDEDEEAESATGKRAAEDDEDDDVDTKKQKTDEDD

Which Ave [1] does the source give for “PIF-resin (PIF15 affinity ligand on agarose) (peptide)” here?
Its Ave is 1.

And the Inject 1 [1]?
Its Inject 1 is 1.

What about the Inject 2 [1] of the same substance?
Its Inject 2 is 1.

What about the Ave [2] of the same substance?
Its Ave is 1.

What about the Inject 1 [2] of the same substance?
Its Inject 1 is 1.

What about the Inject 2 [2] of the same substance?
Its Inject 2 is 1.

What about the Ave [3] of the same substance?
Its Ave is 4.

What about the Ave [4] of the same substance?
Its Ave is 7.

What about the Inject 1 [4] of the same substance?
The Inject 1 was 6.

And the Inject 2 [4]?
The Inject 2 was 7.

And the Inject 3 [4]?
Its Inject 3 is 7.

And the Ave [5]?
Its Ave is 4.

What about the Inject 1 [5] of the same substance?
The Inject 1 was 5.

What about the Inject 2 [5] of the same substance?
Its Inject 2 is 4.

What about the Ave [6] of the same substance?
Its Ave is 1.

And the Inject 1 [6]?
The Inject 1 was 0.

What about the Inject 2 [6] of the same substance?
Its Inject 2 is 0.

What about the Ave [7] of the same substance?
The Ave was 1.

And the Inject 1 [7]?
Its Inject 1 is 1.

And the Inject 3 [7]?
Its Inject 3 is 0.

And the Inject 2 [8]?
Its Inject 2 is 4.

What about the Inject 3 [9] of the same substance?
Its Inject 3 is 1.

And the Ave [10]?
The Ave was 5.

And the Inject 1 [10]?
The Inject 1 was 5.

What about the Inject 2 [11] of the same substance?
Its Inject 2 is 1.

And the Inject 3 [11]?
The Inject 3 was 1.

And the Ave [12]?
Its Ave is 1.

And the Inject 2 [12]?
Its Inject 2 is 1.

What about the Inject 3 [12] of the same substance?
Its Inject 3 is 1.

What about the Ave [13] of the same substance?
The Ave was 1.

What about the Inject 2 [13] of the same substance?
Its Inject 2 is 0.

And the Inject 3 [13]?
Its Inject 3 is 1.

And the Ave [14]?
The Ave was 1.

What about the Inject 1 [14] of the same substance?
Its Inject 1 is 1.

What about the Inject 2 [14] of the same substance?
The Inject 2 was 0.

What about the Inject 1 [15] of the same substance?
The Inject 1 was 4.

And the Ave [16]?
The Ave was 1.

What about the Inject 1 [16] of the same substance?
Its Inject 1 is 0.

And the Inject 2 [16]?
The Inject 2 was 1.

And the Inject 1 [17]?
Its Inject 1 is 4.

And the Inject 2 [17]?
Its Inject 2 is 4.

And the Inject 3 [18]?
The Inject 3 was 4.

What about the Inject 1 [19] of the same substance?
The Inject 1 was 4.

And the Inject 3 [19]?
The Inject 3 was 1.

And the Ave [20]?
Its Ave is 1.

What about the Inject 1 [20] of the same substance?
The Inject 1 was 1.

And the Inject 3 [20]?
Its Inject 3 is 1.

What about the Ave [21] of the same substance?
The Ave was 10.

What about the Inject 1 [21] of the same substance?
The Inject 1 was 11.

What about the Inject 2 [21] of the same substance?
The Inject 2 was 9.

What about the Inject 3 [21] of the same substance?
The Inject 3 was 10.

What about the Ave [22] of the same substance?
Its Ave is 1.

And the Inject 2 [22]?
The Inject 2 was 0.

And the Inject 3 [22]?
The Inject 3 was 1.

And the Ave [23]?
The Ave was 1.

What about the Inject 1 [23] of the same substance?
The Inject 1 was 1.

And the Inject 2 [23]?
Its Inject 2 is 1.

And the Inject 2 [24]?
Its Inject 2 is 1.

What about the Inject 1 [25] of the same substance?
The Inject 1 was 4.

And the Inject 2 [25]?
Its Inject 2 is 1.

And the Inject 1 [26]?
Its Inject 1 is 5.

And the Inject 3 [26]?
The Inject 3 was 8.

And the Ave [27]?
The Ave was 5.

And the Inject 1 [27]?
The Inject 1 was 5.

And the Inject 2 [27]?
Its Inject 2 is 5.

What about the Inject 3 [27] of the same substance?
Its Inject 3 is 4.

And the Ave [28]?
The Ave was 4.

What about the Inject 1 [28] of the same substance?
The Inject 1 was 4.

What about the Inject 3 [28] of the same substance?
The Inject 3 was 5.

And the Ave [29]?
Its Ave is 8.

And the Inject 1 [29]?
The Inject 1 was 8.

And the Inject 3 [29]?
Its Inject 3 is 8.

And the Inject 3 [30]?
The Inject 3 was 1.

What about the Ave [31] of the same substance?
The Ave was 10.

And the Inject 1 [31]?
Its Inject 1 is 9.

And the Inject 2 [31]?
The Inject 2 was 11.

And the Inject 3 [31]?
Its Inject 3 is 9.
